Measurements: the DeepSol protein solubility set

assay: soluble on expression in E. coli; label from the status in PepcDB or PDB records

Soluble on expression in E. coli, soluble:
MLTIKNLHASVHNNQILRGVNLTINAGEVHAIMGPNGSGKSTLASVLAGREDYAIVDGDVRYFDEDLFELSPEDRAAKGLFLAFQYPVEIPGVNNLYFLKTAVNSIRKTRGEAPFDAIDLMGLVKEKLALVDMDDKFLKRSVNEGFSGGEKKRNEILQMLMLDPRLAILDETDSGLDIDALQTVAKGVNSLRNKERAILLVTHYQRLLDYIKPDFVHVLVNGRIVLSGDQSLALELEKKGYGWL, SGDPNSRKKQALNRLRAQLRKKKESLADQFDFKMYIAFVFKEKKKKSALFEVSEVIPVMTNNYEENILKGVRDSSYSLESSLELLQKDVVQLHAPRYQSMRRDVIGCTQEMDFILWPRNDIEKIVCLLFSRWKESDEPFRPVQAKFEFHHGDYEKQFLHVLSRKDKTGIVVNNPNQSVFLFIDRQHLQTPKNKATIFKLCSICLYLPQEQLTHWAVGTIEDHLRPYMPE, MFQKVDAYAGDPILTLMERFKEDPRSDKVNLSIGLYYNEDGIIPQLQAVAEAEARLNAQPHGASLYLPMEGLNCYRHAIAPLLFGADHPVLKQQRVATIQTLGGSGALKVGADFLKRYFPESGVWVSDPTWENHVAIFAGAGFEVSTYPWYDEATNGVRFNDLLATLKTLQAGSIVLLHPCCHNPTGADLTNDQWDAVIEILKARELIPFLDIAYQGFGAGMEEDAYAIRAIASAGLPALVSNSFSKIFSLYGERVGGLSVMCEDAEAAGRVLGQLKATVRRNYSSPPNFGAQVVAAVLNDEALKASWLKEVEEMRTRILAMRQELVKVLSTEMPERNFDYLLNQRGMFSYTGLSAAQVDRLREEFGVYLIASGRMCVAGLNTANVQRVAKAFAAVM, MSLSRLVVVSNRIAPPDEHAASAGGLAVGILGALKAAGGLWFGWSGETGNEDQPLKKVKKGNITWASFNLSEQDLDEYYNQFSNAVLWPAFHYRLDLVQFQRPAWDGYLRVNALLADKLLPLLQDDDIIWIHDYHLLPFAHELRKRGVNNRIGFFLHIPFPTPEIFNALPTYDTLLEQLCDYDLLGFQTENDRLAFLDCLSNLTRVTTRSAKSHTAWGKAFRTEVYPIGIEPKEIAKQAAGPLPPKLAQLKAELKNVQNIFSVERLDYSKGLPERFLAYEALLEKYPQHHGKIRYTQIAPTSRGDVQAYQDIRHQLENEAGRINGKYGQLGWTPLYYLNQHFDRKLLMKIFRYSDVGLVTPLRDGMNLVAKEYVAAQDPANPGVLVLSQFAGAANELTSALIVNPYDRDEVAAALDRALTMSLAERISRHAEMLDVIVKNDINHWQECFISDLKQIVPRSAESQQRDKVATFPKLAEGGSHHHHHH, MEYLNVAEIKALLNSTISKLNPRYTSNYMIVTAILTGARLSEIAGLTWNDINFNFNTININKSYDYFAKSFKPTKNKSSNRIIKINNTLCDVLKELRTNNTDLVFKNKRGLIPTSNAVNKALRARLEELNINRRNFHFHSLRHSHVAFLLSQGIDIYPIAQRLGHSDITTTTRTYAYLIEEYKDKNDAIIIAGLDKLEHHHHHH, MAHHHHHHMGLEDIDVDDPPLTTSATPQTQKQCSSTLPNPPVTNVVKGASAPVDLVDLFGDLNVSTATPVVVTAATVGAATNSKNQAHYAGNTADDDFEWVTAKPSVAPPLAPKSYQGNAGTSNDPLDSFFSQAVPTPAATETAKPPDSSNDLFDFSEPVERVKYTNENTLLEAFANQGKANQGGGSKGPTLADLSKGSSDNVVKARLLKLMNYYDVLGVTPDATEAVIRQRFKKKALELHPDRVGRDQTPEEVELFKVMTKAHEVLTDPEERAKYDAQLLGGVPSGSPDSDWFFPPS, MSLLFYRPLASIQALTFDLDDTLYDNRPVIKQVEEKVTEWLLSEHPITATRPLAWWLAMKRDIARRFPEQCHDVSQWRYLQVQHGLLELGYAQPEAEQAASETLEQVMRWRNQVDVPAETHRVLAQLAAKVPLIAITNGNVQIEKIGLSGYFQTVLRAGPDGRAKPYPDLFAQAAQQLQLEPRSILHVGDHLQTDVLGARQNGFQACWFNDQGQSIRRLAKASVLPDVEIERLSELLLIVNEGHHHHHH, MSEYNPCLDCGACCGYFRVSFFWGECQSAGGVVPDDLVVQINPTRVAMIGTDAKPCRCVSLQGEIGKEVACTIYANRSSPCREFDASWEGGVHNPSCDDARAAYGLPPLTPPEANEPHWPDDGAEVALEHHHHHH

Soluble on expression in E. coli, not soluble:
MQPSIAPSTPIPRQETVELVYRIFGDVLVPLEQVRERWFRNLNKENFSKALACGRIALPVTTLDDSHKAMQFVALDHLAAYVDQRANQAGSARRAQPGADSIAS, MGSDKIHHHHHHMQDFSNLVEKVENTLIPYFRKIEKRALFNQEKVLNAFHHVKASESDLQGSTGYGYDDFGRDHLEQIYAHTFKADDALVRPQIISGTHAITLALQSTLKNNDELLYITGSPYDTLLEVIGINGNGVESLKEYGVRYNEVELRDGRIDIPKVITAINDNTKVVAIQRSKGYDQRPSITINEIEQAITSIKEVYPNIIIFVDNCYGEFVEDKEPIEVGADLIAGSLIKNPGGGLAKIGGYIAGRQDLIERCGYRLTAPGIGKEAGASLNSLQEMYQGFFLAPHVVSQSLKGALFTSLLLEKINMKTSPKYNVYRTDLIQTVQFETKEQMISFCQSIQHASPINAHFSPEPSYMPGYEDDVIMAAGTFIQGSSIELSADGPIRPPYEAYVQGGLTYEHVKLAVTRAVQHMQENNLL, MNELREKDESYRSFLLLSAISSEEPLSQREIARQVGIALGLVNSYLKHLVDKGFVRIKSFPRNRYAYLLTPRGLAEKSRLAYEHLSSFTTLFRVARQDYLALFRALKTQGVGRVAFCGVDEVAEIAYLSLREVGLELALVMDQATDGREFFGKPVVSIPHGLLAGNHHIVITTFKRREALREELLQRGVASELLHQAGEPAGETQSIREEHP, MGSDKIHHHHHHMNEIKRIDTVQQYNDYFGMETLHPLVTVIDAREANPVHFCPKLYNLYAILMKDPDCGTLKYGRSIYDYQQGTMLFLAPGQVMGSDDDGQLHQPGGWLLAFHPELVRNTPLAQFIKNYSFFSYSANEALHLSEQERRTIIDCMCKIREELLHPIDKHTKSLITDNIKLLLDYCERFYDRQFETRENVNLDILARFEQTLDDYLASNLPISKGTPTVQYCADKLCLSANYLSDLLKKETGVSALKHIQQKMLDIAKERVFDVTKSISEISYELGFPYPQHFSRWFKKMVGVTPNEYRQNRNN, MGSDKIHHHHHHMTRLEIVDSKLRQAKKTEEYFNAIRTNIQFSGKENKILAITSVREGEGKSTASTSLALSLAQAGFKTLLIDADTRNSVMSGTFKATGTIKGLTNYLSGNADLGDIICETNVPRLMVVPSGKVPPNPTALLQNAYFNKMIEAIKNIFDYIIIDTPPIGLVVDAAIIANACDGFILVTQAGRIKRNYVEKAKEQMEQSGSKFLGIILNKVNESVATYGDYGNYGKRDRKRK, SVDILVIPGHVRGDAAVISKVVGRPVYKGTVSPVYIPDIMKILRSGGKLDTEKPAEEVVKLSDYTSKIVFREAFRVGSLRIPLKPPPLLVVAEIPPTVAEDGIAGLAARMERDGASMVAVGTGFDDDPQVVHEKVRTALSALKDSPVIAETPTLDHAYSALKAGASGVIMPVETAVRLASEKPLPGDAFIIVSGEQPEELAKAVESLRTSGYSKVAVDPSLSPPLLGLLESIERFRRASRLLNVPLVFSAANVAEEVQADSHGVHALLALMALEAGASIYYVVEDSYKSYRSTAEAAEAARYASAARTLFSPRIPLTRLFVVKQPRRPPNPVEPPGERVNVDYIPPSMDRTGYAHIQVDHERGVIMLTFYPAGGEPVTFEGRKPTSLLRALTSRFPVSSEHAGYIGYELAKAEIALALGKTYVQDSPVLVPVWGGLDEE, MAHHHHHHMEKYEFPEDYVNPRNIPRIAYIPDVAAYVSNGGGADTVISNLLMESSKYEHMEKRLVSSLANLDYKIPTIKKTLNSLEFLQKQLEEAEQQEEDGKRAGIRSYYCLTDSVFGEAIVRPQKTVHLWMGAKVMVEYTFEEASALLKKNLSNAEVNMRNTKEDLAWLQEQITNLQINISRVYNYDLKNKRAKD, MGHHHHHHSHMKPHFRNTVERMYRDTFSYNFYNRPILSRRNTVWLCYEVKTKGPSRPRLDAKIFRGQVPRSFIRAPFQVLSSPFGQCAPPHGTAQVQWPPQLTAGREQGRP, MNIIILAGGEGKRMGGVDKAAVAVDGRTLLDILLSQLDPEDDVVVVSPAIIDGITTVCEEPPLGGPVAGIEAGLNSFEHAHEFTAILAVDAPYSAAMLPLLQAQIGKADVAVTLAADGWVQPLCALWRSGSLEAVIHSLGETRNRPAKALLKQAGHIVEVGGDGTEKDYDTVAELEVLGNVTLPKAHLEHHHHHH, MNAHEIDYRLYGDDMQFVEIELDPYESVVAEAGGMMMMDDGIVMETVFGDGSSSGKGLLGRLVGAGKRLLTGESLFMTVFTNQGSGKRRVAFAAPYPGKIIPVDLSELGGKLICQKDSFLCAAKGVSVGIEFQRKLGAGFFGGEGFIMQKLEGDGLAFLHAGGTIHRRDLQPGETLRIDTGCLVAMTKDVNYDIEYVGSIKTAFFGGEGLFLATVTGPGAVWVQSLPFSRLADRVLAAAPSAGGRSVGEGSILGGIGDWLDGDD, MKHTTKQMEILSDIRTLLHKKEEHLKRQNEKFLRETGVSSMSLSELHVIECIGKNGLMNVTAITTEMGMTKGAISKICTKLFQKQFVEKLQMLDNQKEIFFSLTESGNEIYKAHEKLHKQAEEKWLLLLDGYTKEEQDFIQRFIKDVSGHLEI, MGSDKIHHHHHHMSSTKIIATFNQSGGAAKTTITHNLGYHLAKKHRVLLVDMDPQASLTAFMGLGEVKLQTEQTIYGAIAEETPLYIWEKPIHGMHLVPTNIQLAGTEQKIFHDLTIDNRQRLKFVLSNVLDQYDYILIDCPPSLGILSIMSLVAASHVIIPVETQYKCYLGTNQLLETIARLKKGGHQKLQIACIIPTKYDNRNLQDTGILEEIKQQVEGRIHVTAPIPKSTAFPDATQAHLPLALHKKNHPAVSILEEITKYITQLSVTQGQSH, MGSDKIHHHHHHMNIKDLQYYVSLTQLKNFSLVAAQFHVSQPTISAAIRRLETELKTQLLIRANPHLPVALTTTGIQVQRHANQILLEHQLMCQEVAHTTTDQLVIGMPPIIEINYFPRIASQLPQALFSQIQPISQGSLAALKGLKNGQLDLAVLAYLNEFTDTTIQLTTFDTQSFSIVVPTDDPLATNSQLQFRSLRHQHFVALKDNFVHRQAFRQLSHQNHVRPTIVFESNEIGSILNMVRQHVGIALLSNAVQLPAGLQRLPLTDAQAPTFNVGVAYRHSMTFSPTQADLIQRLTAAFQSVDWRAY, MDADSSNSTVTPGRLPDGLSSCPCFYLGKKLMNLSANAQATLLLTSDFSRAAASKYKPLSNSEWGKFALWLKHQRISPAELLVPQPQEKLTGWSDPRISQERILGLLARGHSLALAVDKWQRAGLWILTRGDADYPVRLKNRLRTDAPPVLFGCGNKALLQAEGMAIVGSRDAPTDDLRYTQQLAAKLAQQGICVISGGARGIDECAMASALEAGGTAVGVLADSLLKTSTLVKWREGLIAGNLVLISPFYPEVRFTVGNAMARNKYIYCLAESAMVVRAGMTGGTITGAMEALKHQWLPVQVKPNQDMQSANSRLVENGASWSAEQAENVTIRLPDVPGLMYDRALRNAQPELFSLHEDDANYAVMPAYTPVDFYQLFVAELAILAKESISIERLASCTGLTIEQISVWLNRAEEEGRVIRLGEGHYQFR
